Assay results published in patent US20230220084A1.

Key:
[1] = molecular target: human CLEC12A expressed on cells (human) (UniProt Q5QGZ9); test: flow cytometry, HL60 cells
[2] = molecular target: hCLEC12A-His fusion protein (human) (UniProt Q5QGZ9); test: SPR screening, semi-purified protein
[3] = molecular target: human CLEC12A expressed on cells (human) (UniProt Q5QGZ9); test: flow cytometry, hCLEC12A+Ba/F3 cells
[4] = molecular target: cynomolgus CLEC12A expressed on RMA cells (cynomolgus monkey); test: flow cytometry, RMA-cCLEC12A cells
[5] = molecular target: human CLEC12A expressed on cells (human) (UniProt Q5QGZ9); test: flow cytometry, U937 cells
[6] = molecular target: human CLEC12A expressed on cells (human) (UniProt Q5QGZ9); test: flow cytometry, RMA-hCLEC12A cells
[7] = molecular target: De-sialylated hCLEC12A (human) (UniProt Q5QGZ9); test: SPR, analyte de-sialylated hCLEC12A
[8] = molecular target: De-glycosylated hCLEC12A (human) (UniProt Q5QGZ9); test: SPR, analyte de-glycosylated hCLEC12A
[9] = molecular target: hCLEC12A-His fusion protein (human) (UniProt Q5QGZ9); test: SPR, analyte glycosylated hCLEC12A

Sequence of De-sialylated hCLEC12A (human) (Q5QGZ9 65-265 limits assumed): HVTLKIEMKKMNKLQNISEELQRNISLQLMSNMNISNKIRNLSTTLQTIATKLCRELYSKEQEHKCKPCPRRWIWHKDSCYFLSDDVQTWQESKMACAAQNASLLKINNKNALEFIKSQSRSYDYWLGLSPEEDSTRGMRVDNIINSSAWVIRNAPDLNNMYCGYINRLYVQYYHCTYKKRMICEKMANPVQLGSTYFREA
Sequence of De-glycosylated hCLEC12A (human) (Q5QGZ9 65-265 limits assumed): as above
Sequence of hCLEC12A-His fusion protein (human) (Q5QGZ9 65-265 limits assumed): as above
Sequence of human CLEC12A expressed on cells (human) (Q5QGZ9 whole entry, the tested form may be a part): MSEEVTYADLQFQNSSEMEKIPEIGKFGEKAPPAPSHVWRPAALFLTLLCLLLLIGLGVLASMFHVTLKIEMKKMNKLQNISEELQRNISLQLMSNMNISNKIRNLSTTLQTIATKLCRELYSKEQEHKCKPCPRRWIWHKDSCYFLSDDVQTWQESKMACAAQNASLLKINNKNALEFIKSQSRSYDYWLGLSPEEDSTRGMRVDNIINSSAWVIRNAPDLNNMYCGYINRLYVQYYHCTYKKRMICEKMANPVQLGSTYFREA
Sequence of cynomolgus CLEC12A expressed on RMA cells (cynomolgus monkey) (chain, as listed by the source): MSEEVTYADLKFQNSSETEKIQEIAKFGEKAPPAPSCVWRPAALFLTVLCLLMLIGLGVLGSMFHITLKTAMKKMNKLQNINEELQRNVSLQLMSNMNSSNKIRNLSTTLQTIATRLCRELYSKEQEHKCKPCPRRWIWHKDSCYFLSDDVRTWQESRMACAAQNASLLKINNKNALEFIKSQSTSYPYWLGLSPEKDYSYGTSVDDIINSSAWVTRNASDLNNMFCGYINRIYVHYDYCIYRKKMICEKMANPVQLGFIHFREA

EC50 [1] [nM] | Max binding MFI [1] [MFI] | Kd [2] [nM] | koff [2] [s⁻¹] | kon [2] [M⁻¹ s⁻¹] | EC50 [3] [nM] | Max binding MFI [3] [MFI] | other results | Binder
0.4 | 372 | 1.4 | 0.00101 | 726000 | 0.7 | 8020 |  | AB0185 (bispecific antibody, part only; not given: Fc, unrelated binder arm, linkers, not shown: another chain or arm of the molecule; a dimerising Fc or GST; small tags and cut ends) scFv: DIQMTQSPSSLSASVGDRVTITCKASQDIYNYLSWFQQKPGKAPKPLIYRANILVSGVPSRFSGSGSGQDYTFTISSLQPEDIATYYCLQFDAFPFTFGCGTKLEIKGGGGSGGGGSGGGGSGGGGSEVQLVESGGGVVQPGGSLRLSCAASGFTFNSFGMHWVRQAPGKCLEWVAFISSGSTSIYYANTVKGRFTISRDNSKNTLYLQMNSLRAEDTAVYYCARDGYPTGGAMDYWGQGTSVTVSS
 |  | 1.58 | 0.000901 | 569000 |  |  |  | AB0188 (bispecific antibody, part only; not given: Fc, unrelated binder arm, linkers, not shown: another chain or arm of the molecule; a dimerising Fc or GST; small tags and cut ends) scFv: DIKMTQSPSSLSASVGDRVTITCKASQDIYNYLSWFQQKPGKAPKPLIYRANILVSGVPSRFSGSGSGQDYTLTISSLQPEDIATYYCLQFDAFPFTFGCGTKLEIKGGGGSGGGGSGGGGSGGGGSEVQLVESGGGVVQPGGSLRLSCAASGFTFNSFGMHWVRQAPGKCLEWVAFISSGSTSIYYANTVKGRFTISRDNSKNTLYLQMNSLRAEDTAVYYCARDGYPTGGAMDYWGQGTSVTVSS
0.5 | 412 | 1.04 | 0.00117 | 1.12e+06 | 0.7 | 8160 |  | AB0186 (bispecific antibody, part only; not given: Fc, unrelated binder arm, linkers, not shown: another chain or arm of the molecule; a dimerising Fc or GST; small tags and cut ends) scFv: DIQMTQSPSSLSASVGDRVTITCKASQDIYNYLSWFQQKPGKAPKPLIYRANILVSGVPSRFSGSGSGQDYTFTISSLQPEDIATYYCLQFDAFPFTFGCGTKLEIKGGGGSGGGGSGGGGSGGGGSEVQLVESGGGVVQPGGSLRLSCAASGFTFNAFGMHWVRQAPGKCLEWVAFISSGSTSIYYANTVKGRFTISRDNSKNTLYLQMNSLRAEDTAVYYCARDGYPTGGAMDYWGQGTSVTVSS
0.7 | 420 | 1.21 | 0.00127 | 1.04e+06 | 1.3 | 8760 |  | AB0189 (bispecific antibody, part only; not given: Fc, unrelated binder arm, linkers, not shown: another chain or arm of the molecule; a dimerising Fc or GST; small tags and cut ends) scFv: DIKMTQSPSSLSASVGDRVTITCKASQDIYNYLSWFQQKPGKAPKPLIYRANILVSGVPSRFSGSGSGQDYTLTISSLQPEDIATYYCLQFDAFPFTFGCGTKLEIKGGGGSGGGGSGGGGSGGGGSEVQLVESGGGVVQPGGSLRLSCAASGFTFNAFGMHWVRQAPGKCLEWVAFISSGSTSIYYANTVKGRFTISRDNSKNTLYLQMNSLRAEDTAVYYCARDGYPTGGAMDYWGQGTSVTVSS
0.6 | 420 | 1.73 | 0.00126 | 728000 | 0.6 | 7940 |  | AB0191 (bispecific antibody, part only; not given: Fc, unrelated binder arm, linkers, not shown: another chain or arm of the molecule; a dimerising Fc or GST; small tags and cut ends) scFv: EVQLVESGGGVVQPGGSLRLSCAASGFTFNSFGMHWVRQAPGKCLEWVAFISSGSTSIYYANTVKGRFTISRDNSKNTLYLQMNSLRAEDTAVYYCARDGYPTGGAMDYWGQGTSVTVSSGGGGSGGGGSGGGGSGGGGSDIQMTQSPSSLSASVGDRVTITCKASQDIYNYLSWFQQKPGKAPKPLIYRANILVSGVPSRFSGSGSGQDYTFTISSLQPEDIATYYCLQFDAFPFTFGCGTKLEIK
0.7 | 551 | 1.68 | 0.00129 | 766000 | 0.6 | 10800 |  | AB0195 (bispecific antibody, part only; not given: Fc and unrelated binding arm, not shown: another chain or arm of the molecule; a dimerising Fc or GST) scFv: EVQLVESGGGVVQPGGSLRLSCAASGFTFNAFGMHWVRQAPGKCLEWVAFISSGSTSIYYANTVKGRFTISRDNSKNTLYLQMNSLRAEDTAVYYCARDGYPTGGAMDYWGQGTSVTVSSGGGGSGGGGSGGGGSGGGGSDIKMTQSPSSLSASVGDRVTITCKASQDIYNYLSWFQQKPGKAPKPLIYRANILVSGVPSRFSGSGSGQDYTLTISSLQPEDIATYYCLQFDAFPFTFGCGTKLEIK
0.6 | 503 | 1.26 | 0.00138 | 1.09e+06 | 0.7 | 10200 |  | AB0192 (bispecific antibody, part only; not given: Fc, unrelated binder arm, linkers, not shown: another chain or arm of the molecule; a dimerising Fc or GST; small tags and cut ends) scFv: EVQLVESGGGVVQPGGSLRLSCAASGFTFNAFGMHWVRQAPGKCLEWVAFISSGSTSIYYANTVKGRFTISRDNSKNTLYLQMNSLRAEDTAVYYCARDGYPTGGAMDYWGQGTSVTVSSGGGGSGGGGSGGGGSGGGGSDIQMTQSPSSLSASVGDRVTITCKASQDIYNYLSWFQQKPGKAPKPLIYRANILVSGVPSRFSGSGSGQDYTFTISSLQPEDIATYYCLQFDAFPFTFGCGTKLEIK
 |  | 5.16 | 0.0489 | 9.48e+06 |  |  |  | F3′-1306 (bispecific antibody, part only; not given: Fc and unrelated binding arm, not shown: another chain or arm of the molecule; a dimerising Fc or GST; small tags and cut ends) scFv: DIQMTQSPSSLSASVGDRVTITCHASQNINFWLSWYQQKPGKAPKLLIYEASNLHTGVPSRFSGSGSGTRFTLTISSLQPEDIATYYCQQSHSYPLTFGCGTKLEIKGGGGSGGGGSGGGGSGGGGSQLQLQESGPGLVKPSETLSLTCTVSGFSLTNYGLHWIRQPPGKCLEWIGVIWSGGKTDYNPSLKSRVTISKDTSKNQFSLKLSSVQANDTAVYYCAKYDYDDSLDYWGQGTLVTVSS
4.2 |  |  |  |  | 6.13 |  | Max MFI [1]: 6060 MFI; Max MFI [3]: 54800 MFI | AB0010 (bispecific antibody, part only; not given: constant domains, Fc, unrelated scFv, V domains shown, not shown: another chain or arm of the molecule; a dimerising Fc or GST) VH: QLQLQESGPGLVKPSETLSLTCTVSGFSLTNYGLHWIRQPPGKGLEWIGVIWSGGKTDYNPSLKSRVTISKDTSKNQFSLKLSSVQAADTAVYYCAKYDYDDSLDYWGQGTLVTVSS VL: DIQMTQSPSSLSASVGDRVTITCHASQNINFWLSWYQQKPGKAPKLLIYEASNLHTGVPSRFSGSGSGTRFTLTISSLQPEDIATYYCQQSHSYPLTFGGGTKLEIK
 |  |  |  |  |  |  | Cell Binding MFI [4]: 1130 MFI; Cell Binding MFI [5]: 44.1 MFI; Cell Binding MFI [6]: 819 MFI | 16B08 hybridoma supernatant antibody (antibody, from a related filing, V domains shown) VH: EVQLQESGPGLVQPSQSLSITCTVSGFSLTNYGLHWVRQSPGKGLEWLGVIWSGGKTDYNTPFKSRLSISKDISKNQVFFKMNSLQPNDTAIYFCAKYDYDDSLDYWGQGTSVTVSS VL: DIQMNQSPSSLSASLGDTIAITCHASQNINFWLSWYQQKPGNIPKLLIYEASNLHTGVPSRFSGSGSGTRFTLTISSLQPEDIATYYCQQSHSYPLTFGQGTKLEIK
 |  | 3.22 | 0.0013 | 402000 |  |  |  | F3′-1292 (bispecific antibody, part only; not given: Fc and unrelated binding arm, not shown: another chain or arm of the molecule; a dimerising Fc or GST) scFv: QLQLQESGPGLVKPSETLSLTCTVSGFSLTNYGLHWIRQPPGKCLEWIGVIWSGGKTDYNPSLKSRVTISKDTSKNQFSLKLSSVQANDTAVYYCAKYDYDDSLDYWGQGTLVTVSSGGGGSGGGGSGGGGSGGGGSDIQMTQSPSSLSASVGDRVTITCHASQNINFWLSWYQQKPGKIPKLLIYEASNLHTGVPSRFSGSGSGTRFTLTISSLQPEDIATYYCQQSHSYPLTFGCGTKLEIK
 |  | 2.79 | 0.00141 | 504000 |  |  |  | F3′-1297 (bispecific antibody, part only; not given: Fc and unrelated binding arm, not shown: another chain or arm of the molecule; a dimerising Fc or GST; small tags and cut ends) scFv: QLQLQESGPGLVKPSETLSLTCTVSGFSLTNYGLHWIRQPPGKCLEWIGVIWSGGKTDYNPSLKSRVTISKDTSKNQFSLKLSSVQANDTAVYYCAKYDYDDSLDYWGQGTLVTVSSGGGGSGGGGSGGGGSGGGGSDIQMTQSPSSLSASVGDRVTITCHASQNINFWLSWYQQKPGKAPKLLIYEASNLHTGVPSRFSGSGSGTRFTLTISSLQPEDIATYYCQQSHSYPLTFGCGTKLEIK
 |  | 1.34 | 0.00117 | 874000 |  |  |  | F3′-1296 (bispecific antibody, part only; not given: Fc and unrelated binding arm, not shown: another chain or arm of the molecule; a dimerising Fc or GST) scFv: QLQLQESGPGLVKPSETLSLTCTVSGFSLTNYGLHWIRQPPGKCLEWIGVIWSGGKTDYNPSLKSRVTISKDTSKNQFSLKLSSVQANDTAVYYCARYDYDDSLDYWGQGTLVTVSSGGGGSGGGGSGGGGSGGGGSDIQMTQSPSSLSASVGDRVTITCHASQNINFWLSWYQQKPGKIPKLLIYEASNLHTGVPSRFSGSGSGTRFTLTISSLQPEDIATYYCQQSHSYPLTFGCGTKLEIK
 |  |  |  |  |  |  | Kd [7]: 0.62 nM; koff [7]: 0.00098 s⁻¹; kon [7]: 1.58e+06 M⁻¹ s⁻¹; Kd [8]: 0.34 nM; koff [8]: 0.000374 s⁻¹; kon [8]: 1.11e+06 M⁻¹ s⁻¹; Kd [9]: 0.96 nM; koff [9]: 0.00111 s⁻¹; kon [9]: 1.15e+06 M⁻¹ s⁻¹ | Murine F3′-9F11 (bispecific antibody, part only; not given: format, linker, Fc, other arm, V domains shown, not shown: a dimerising Fc or GST) VH: EVQLQESGGGLVQPGGSRKLSCAASGFTFNSFGMHWVRQAPEKGLEWVAFISSGSTSIYYANTVKGRFTISRDNPKNTLFLQMTSLRSEDTAMYYCARDGYPTGGAMDYWGQGTSVTVSS VL: DIKMTQSPSSMYASLGERVTITCKASQDIYNYLSWFQLKPGKSPRPLIYRANILVSGVPSKFSGSGSGQDYSLTINSLEYEDLGIYYCLQFDAFPFTFGSGTKLEIK
